Measurements taken from article PMC12606367, “CryoEM and computational modeling structural insights into the pH regulator NBCn1” (Nature Communications, 2025).

Biological target: the molecule itself
Test: cryo-EM structure; purified NBCn1 (~1.5 mg/ml) in 20 mM Tris-HCl, 115 mM NaCl, 25 mM NaHCO3, pH 7.4, 0.01% LMNG; dimer peak of Superose 6 put on grids; three dimeric states (3.5, 3.4, 3.3 Å), final map 3.3 Å

B1: N-terminally Strep(II)-tagged wt-human NBCn1-A (natural protein, UniProt Q9Y6M7-1 1-1214, looked up)
chain: MERFRLEKKLPGPDEEAVVDLGKTSSTVNTKFEKEELESHRAVYIGVHVPFSKESRRRHRHRGHKHHHRRRKDKESDKEDGRESPSYDTPSQRVQFILGTEDDDEEHIPHDLFTEMDELCYRDGEEYEWKETARWLKFEEDVEDGGDRWSKPYVATLSLHSLFELRSCILNGTVMLDMRASTLDEIADMVLDNMIASGQLDESIRENVREALLKRHHHQNEKRFTSRIPLVRSFADIGKKHSDPHLLERNGEGLSASRHSLRTGLSASNLSLRGESPLSLLLGHLLPSSRAGTPAGSRCTTPVPTPQNSPPSSPSISRLTSRSSQESQRQAPELLVSPASDDIPTVVIHPPEEDLEAALKGEEQKNEENVDLTPGILASPQSAPGNLDNSKSGEIKGNGSGGSRENSTVDFSKVDMNFMRKIPTGAEASNVLVGEVDFLERPIIAFVRLAPAVLLTGLTEVPVPTRFLFLLLGPAGKAPQYHEIGRSIATLMTDEIFHDVAYKAKDRNDLLSGIDEFLDQVTVLPPGEWDPSIRIEPPKSVPSQEKRKIPVFHNGSTPTLGETPKEAAHHAGPELQRTGRLFGGLILDIKRKAPFFLSDFKDALSLQCLASILFLYCACMSPVITFGGLLGEATEGRISAIESLFGASLTGIAYSLFAGQPLTILGSTGPVLVFEKILYKFCRDYQLSYLSLRTSIGLWTSFLCIVLVATDASSLVCYITRFTEEAFAALICIIFIYEALEKLFDLGETYAFNMHNNLDKLTSYSCVCTEPPNPSNETLAQWKKDNITAHNISWRNLTVSECKKLRGVFLGSACGHHGPYIPDVLFWCVILFFTTFFLSSFLKQFKTKRYFPTKVRSTISDFAVFLTIVIMVTIDYLVGVPSPKLHVPEKFEPTHPERGWIISPLGDNPWWTLLIAAIPALLCTILIFMDQQITAVIINRKEHKLKKGAGYHLDLLMVGVMLGVCSVMGLPWFVAATVLSISHVNSLKVESECSAPGEQPKFLGIREQRVTGLMIFILMGLSVFMTSVLKFIPMPVLYGVFLYMGVSSLKGIQLFDRIKLFGMPAKHQPDLIYLRYVPLWKVHIFTVIQLTCLVLLWVIKVSAAAVVFPMMVLALVFVRKLMDLCFTKRELSWLDDLMPESKKKKEDDKKKKEKEEAERMLQDDDDTVHLPFEGGSLLQIPVKALKYSPDKPVSVKISFEDEPRKKYVDAETSL
modifications: N-acetylglucosamine on Asn776, Asn786 and Asn796; disulfide bonds Cys766-Cys814 and Cys768-Cys802
notes: human NBCn1-A (SLC4A7), NP_003606.3, 1214 aa, full length; the atomic model holds residues 581 to 1207; Homodimer in the cryoEM map; only residues 581-1207 (transmembrane domain and C-terminal helix) were built, the cytoplasmic N-terminal part is not in the model; also called SLC4A7; full-length human NBCn1; source: HEK293 cells, transfected (pcDNA3.1(+)), purified (StrepTrap HP, Superose 6 SEC, …)
stoichiometry N: 2
